Data on three molecules can be found in doi:10.1101/2023.07.11.548556, “Skeletal progenitor LRP1 deficiency causes severe and persistent skeletal defects with WNT/planar cell polarity dysregulation” (bioRxiv, 2023).

B1: Wnt5a (ligand, UniProt P41221 62-380, looked up)
chain: IIGAQPLCSQLAGLSQGQKKLCHLYQDHMQYIGEGAKTGIKECQYQFRHRRWNCSTVDNTSVFGRVMQIGSRETAFTYAVSAAGVVNAMSRACREGELSTCGCSRAARPKDLPRDWLWGGCGDNIDYGYRFAKEFVDARERERIHAKGSYESARILMNLHNNEAGRRTVYNLADVACKCHGVSGSCSLKTCWLQLADFRKVGDALKEKYDSAAAMRLNSRGKLVQVNSRFNSPTTQDLVYIDPSPDYCVRNESTGSLGTQGRLCNKTSEGMDGCELMCCGRGYDQFKTVQTERCHCKFHWCCYVKCKKCTEIVDQFVCK
notes: Wnt5a, purified protein; source: purified
B2: Wnt11 (ligand, UniProt O96014 25-354, looked up)
chain: IKWLALSKTPSALALNQTQHCKQLEGLVSAQVQLCRSNLELMHTVVHAAREVMKACRRAFADMRWNCSSIELAPNYLLDLERGTRESAFVYALSAAAISHAIARACTSGDLPGCSCGPVPGEPPGPGNRWGGCADNLSYGLLMGAKFSDAPMKVKKTGSQANKLMRLHNSEVGRQALRASLEMKCKCHGVSGSCSIRTCWKGLQELQDVAADLKTRYLSATKVVHRPMGTRKHLVPKDLDIRPVKDSELVYLQSSPDFCMKNEKVGSHGTQDRQCNKTSNGSDSCDLMCCGRGYNPYTDRVVERCHCKYHWCCYVTCRRCERTVERYVCK
notes: Wnt11, purified protein; source: purified
B3: Wnt3a (ligand, UniProt P56704 19-352, looked up)
chain: SYPIWWSLAVGPQYSSLGSQPILCASIPGLVPKQLRFCRNYVEIMPSVAEGIKIGIQECQHQFRGRRWNCTTVHDSLAIFGPVLDKATRESAFVHAIASAGVAFAVTRSCAEGTAAICGCSSRHQGSPGKGWKWGGCSEDIEFGGMVSREFADARENRPDARSAMNRHNNEAGRQAIASHMHLKCKCHGLSGSCEVKTCWWSQPDFRAIGDFLKDKYDSASEMVVEKHRESRGWVETLRPRYTYFKVPTERDLVYYEASPNFCEPNPETGSFGTRDRTCNVSSHGIDGCDLLCCGRGHNARAERRREKCRCVFHWCCYVSCQECTRVYDVHTCK
notes: Wnt3a, purified protein; source: purified

Some results are limits rather than exact numbers.

T1 sequence (Q07954 20-4544): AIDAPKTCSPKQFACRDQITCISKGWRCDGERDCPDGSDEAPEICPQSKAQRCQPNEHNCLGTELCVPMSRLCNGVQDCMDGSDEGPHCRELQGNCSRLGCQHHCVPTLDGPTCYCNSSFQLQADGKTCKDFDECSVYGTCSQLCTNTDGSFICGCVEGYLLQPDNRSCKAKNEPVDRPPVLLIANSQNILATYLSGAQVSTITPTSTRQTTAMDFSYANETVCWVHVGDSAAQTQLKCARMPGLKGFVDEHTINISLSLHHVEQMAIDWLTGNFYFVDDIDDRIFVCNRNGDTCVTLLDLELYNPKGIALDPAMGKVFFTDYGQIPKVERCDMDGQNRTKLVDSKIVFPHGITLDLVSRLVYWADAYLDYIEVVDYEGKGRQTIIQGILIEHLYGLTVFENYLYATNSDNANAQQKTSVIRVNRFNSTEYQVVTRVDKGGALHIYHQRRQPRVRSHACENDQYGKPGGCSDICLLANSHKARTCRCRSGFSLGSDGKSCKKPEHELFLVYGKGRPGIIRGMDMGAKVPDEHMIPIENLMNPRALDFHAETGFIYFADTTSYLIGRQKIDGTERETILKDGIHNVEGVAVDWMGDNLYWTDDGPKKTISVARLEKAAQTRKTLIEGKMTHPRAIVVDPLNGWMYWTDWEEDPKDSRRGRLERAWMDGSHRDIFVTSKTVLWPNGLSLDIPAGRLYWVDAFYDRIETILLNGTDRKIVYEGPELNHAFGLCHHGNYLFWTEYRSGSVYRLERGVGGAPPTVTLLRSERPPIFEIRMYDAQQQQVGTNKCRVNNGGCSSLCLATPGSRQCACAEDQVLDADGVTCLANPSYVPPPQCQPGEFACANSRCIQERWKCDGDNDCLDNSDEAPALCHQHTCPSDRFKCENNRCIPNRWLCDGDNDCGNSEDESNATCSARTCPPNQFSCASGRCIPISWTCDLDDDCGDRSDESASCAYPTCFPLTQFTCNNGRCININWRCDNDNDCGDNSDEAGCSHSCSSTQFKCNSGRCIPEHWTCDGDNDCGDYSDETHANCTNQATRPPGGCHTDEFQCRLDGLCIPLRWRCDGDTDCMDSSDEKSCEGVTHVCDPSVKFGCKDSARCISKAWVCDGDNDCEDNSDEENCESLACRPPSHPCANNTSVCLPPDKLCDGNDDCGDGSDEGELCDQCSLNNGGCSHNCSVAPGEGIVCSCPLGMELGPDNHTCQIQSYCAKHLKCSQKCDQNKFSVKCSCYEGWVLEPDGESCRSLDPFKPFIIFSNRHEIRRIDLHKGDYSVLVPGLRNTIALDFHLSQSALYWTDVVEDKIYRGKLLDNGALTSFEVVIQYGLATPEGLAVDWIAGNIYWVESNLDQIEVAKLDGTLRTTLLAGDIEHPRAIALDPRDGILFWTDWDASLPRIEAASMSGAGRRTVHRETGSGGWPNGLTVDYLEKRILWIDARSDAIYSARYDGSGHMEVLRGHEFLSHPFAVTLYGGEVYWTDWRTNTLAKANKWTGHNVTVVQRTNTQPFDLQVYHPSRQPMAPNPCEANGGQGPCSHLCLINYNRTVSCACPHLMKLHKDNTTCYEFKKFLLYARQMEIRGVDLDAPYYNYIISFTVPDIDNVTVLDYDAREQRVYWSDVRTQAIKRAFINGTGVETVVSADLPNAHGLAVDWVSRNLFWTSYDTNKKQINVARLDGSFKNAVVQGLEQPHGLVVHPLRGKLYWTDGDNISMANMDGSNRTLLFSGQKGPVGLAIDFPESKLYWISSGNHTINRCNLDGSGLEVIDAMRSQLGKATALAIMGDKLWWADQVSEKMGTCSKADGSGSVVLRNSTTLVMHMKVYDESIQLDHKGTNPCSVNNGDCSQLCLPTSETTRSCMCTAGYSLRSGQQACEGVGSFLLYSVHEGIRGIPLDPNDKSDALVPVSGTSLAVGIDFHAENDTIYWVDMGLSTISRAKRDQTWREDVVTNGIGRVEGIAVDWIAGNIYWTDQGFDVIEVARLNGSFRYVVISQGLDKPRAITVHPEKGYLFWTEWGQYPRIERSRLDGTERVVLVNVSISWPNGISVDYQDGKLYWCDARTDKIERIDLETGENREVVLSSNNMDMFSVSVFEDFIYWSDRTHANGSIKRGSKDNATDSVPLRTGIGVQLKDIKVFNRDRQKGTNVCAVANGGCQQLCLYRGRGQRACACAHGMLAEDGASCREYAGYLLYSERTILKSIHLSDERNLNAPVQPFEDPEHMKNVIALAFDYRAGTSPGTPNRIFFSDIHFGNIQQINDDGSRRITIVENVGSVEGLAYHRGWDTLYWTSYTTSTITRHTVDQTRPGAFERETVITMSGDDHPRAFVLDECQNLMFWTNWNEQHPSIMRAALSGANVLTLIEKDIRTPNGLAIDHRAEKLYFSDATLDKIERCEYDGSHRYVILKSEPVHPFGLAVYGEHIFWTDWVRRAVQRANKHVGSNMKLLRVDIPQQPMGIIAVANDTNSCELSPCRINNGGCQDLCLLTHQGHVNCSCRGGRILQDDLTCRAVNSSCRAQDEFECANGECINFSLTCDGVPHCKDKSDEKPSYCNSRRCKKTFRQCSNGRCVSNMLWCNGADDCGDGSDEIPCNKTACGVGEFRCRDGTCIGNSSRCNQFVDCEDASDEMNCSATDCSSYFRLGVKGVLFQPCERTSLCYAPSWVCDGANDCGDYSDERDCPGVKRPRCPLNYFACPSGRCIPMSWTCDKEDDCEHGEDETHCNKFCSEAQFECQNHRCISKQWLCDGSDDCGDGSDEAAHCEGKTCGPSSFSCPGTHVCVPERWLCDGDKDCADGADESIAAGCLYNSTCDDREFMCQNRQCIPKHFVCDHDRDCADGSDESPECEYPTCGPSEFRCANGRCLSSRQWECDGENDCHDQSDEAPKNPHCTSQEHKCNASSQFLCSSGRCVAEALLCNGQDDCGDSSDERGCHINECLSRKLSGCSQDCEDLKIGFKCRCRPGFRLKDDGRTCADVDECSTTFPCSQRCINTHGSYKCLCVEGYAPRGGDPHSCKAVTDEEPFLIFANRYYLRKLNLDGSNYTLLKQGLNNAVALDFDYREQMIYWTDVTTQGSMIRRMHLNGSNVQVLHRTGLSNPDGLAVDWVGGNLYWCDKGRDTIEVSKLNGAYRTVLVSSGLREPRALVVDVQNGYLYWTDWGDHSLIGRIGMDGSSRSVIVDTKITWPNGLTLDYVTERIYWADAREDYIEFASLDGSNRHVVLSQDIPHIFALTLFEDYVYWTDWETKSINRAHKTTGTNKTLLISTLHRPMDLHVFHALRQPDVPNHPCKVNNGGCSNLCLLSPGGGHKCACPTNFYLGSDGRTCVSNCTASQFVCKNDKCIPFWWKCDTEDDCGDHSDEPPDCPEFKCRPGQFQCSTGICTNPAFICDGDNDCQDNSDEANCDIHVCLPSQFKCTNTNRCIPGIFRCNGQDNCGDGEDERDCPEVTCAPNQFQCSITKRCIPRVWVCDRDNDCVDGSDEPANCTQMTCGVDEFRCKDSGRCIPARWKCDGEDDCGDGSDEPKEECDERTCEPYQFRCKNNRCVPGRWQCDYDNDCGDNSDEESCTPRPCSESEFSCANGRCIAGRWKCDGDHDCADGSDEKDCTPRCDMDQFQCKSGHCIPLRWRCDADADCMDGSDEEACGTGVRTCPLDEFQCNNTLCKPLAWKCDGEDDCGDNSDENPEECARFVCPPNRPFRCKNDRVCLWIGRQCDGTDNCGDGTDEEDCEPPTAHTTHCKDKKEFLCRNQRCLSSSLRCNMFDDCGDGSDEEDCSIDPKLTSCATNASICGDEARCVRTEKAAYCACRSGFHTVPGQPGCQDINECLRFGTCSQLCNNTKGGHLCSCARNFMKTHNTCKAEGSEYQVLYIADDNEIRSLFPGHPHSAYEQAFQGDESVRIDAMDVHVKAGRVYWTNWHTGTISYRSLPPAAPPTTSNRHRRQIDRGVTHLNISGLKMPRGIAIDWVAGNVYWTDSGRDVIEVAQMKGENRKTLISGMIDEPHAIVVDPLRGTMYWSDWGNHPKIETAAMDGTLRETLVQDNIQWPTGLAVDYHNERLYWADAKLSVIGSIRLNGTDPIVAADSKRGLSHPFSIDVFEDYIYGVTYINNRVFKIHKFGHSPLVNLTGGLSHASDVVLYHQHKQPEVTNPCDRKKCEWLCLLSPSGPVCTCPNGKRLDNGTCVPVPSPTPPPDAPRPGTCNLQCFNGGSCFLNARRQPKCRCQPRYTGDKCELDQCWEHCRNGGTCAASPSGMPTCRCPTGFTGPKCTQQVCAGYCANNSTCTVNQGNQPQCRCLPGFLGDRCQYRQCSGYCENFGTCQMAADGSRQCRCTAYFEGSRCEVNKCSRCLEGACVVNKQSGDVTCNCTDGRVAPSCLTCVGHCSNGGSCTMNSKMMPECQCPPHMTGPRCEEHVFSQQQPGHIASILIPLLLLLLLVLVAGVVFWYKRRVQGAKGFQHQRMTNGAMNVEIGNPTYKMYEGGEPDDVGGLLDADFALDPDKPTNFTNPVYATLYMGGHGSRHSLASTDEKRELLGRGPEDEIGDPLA

This experiment concerns the target T1, Low-density lipoprotein receptor-related protein 1 (LRP1), purified human full-length (human, UniProt Q07954 20-4544).
T1 construct: Low-density lipoprotein receptor-related protein 1 (LRP1), human, purified full-length protein coated on the plate; also called full-length LRP1; Full-length sLRP1; source: purified
Kind of experiment: ELISA; solid-phase binding assay; human full-length LRP1 (10 nM in 50 mM Tris-HCl pH 7.5, 150 mM NaCl, 10 mM CaCl2) coated on microtiter plates; 0-200 nM Wnt in 5% BSA blocking solution, 30 min at RT; bound Wnt detected with a specific anti-Wnt antibody; signal of uncoated wells subtracted; apparent constants (KD,app) extrapolated from a one-phase decay nonlinear fit. As to conditions: both partners purified.
Turning to B1, the Kd was 31 nM. As to B2, the Kd is 42 nM. With B3 the figure was more than 200 nM.
